In US20210130436A1:

Legend:
Experiment in all cases: cell-based or functional assay
[1] = target: PD-1 (PDCD1) (Homo sapiens (Human)) (UniProt Q15116)
[2] = target: CD28 on Jurkat/IL2 reporter cells (human) (UniProt P10747)
[3] = target: PD-L1 on K562/OKT3/PD-L1 artificial antigen presenting cells (UniProt Q9NZQ7)
Chain of PD-L1 on K562/OKT3/PD-L1 artificial antigen presenting cells (Q9NZQ7 19-290): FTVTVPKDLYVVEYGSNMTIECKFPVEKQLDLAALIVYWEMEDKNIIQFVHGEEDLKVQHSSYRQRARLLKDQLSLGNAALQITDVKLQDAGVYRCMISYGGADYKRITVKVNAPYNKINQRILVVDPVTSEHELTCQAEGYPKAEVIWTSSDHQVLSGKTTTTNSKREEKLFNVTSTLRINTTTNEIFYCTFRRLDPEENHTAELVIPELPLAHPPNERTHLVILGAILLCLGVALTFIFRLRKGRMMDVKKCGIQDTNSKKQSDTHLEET

Chain of PD-1 (PDCD1) (Homo sapiens (Human)) (Q15116 21-288): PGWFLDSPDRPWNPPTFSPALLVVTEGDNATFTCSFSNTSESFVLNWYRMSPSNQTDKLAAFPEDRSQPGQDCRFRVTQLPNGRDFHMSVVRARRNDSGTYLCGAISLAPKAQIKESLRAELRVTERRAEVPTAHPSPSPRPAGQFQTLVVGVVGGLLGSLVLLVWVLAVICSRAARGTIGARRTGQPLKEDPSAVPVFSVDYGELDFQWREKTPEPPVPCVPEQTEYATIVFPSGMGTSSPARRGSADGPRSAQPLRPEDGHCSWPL

IFN gamma levels pg/mL (MLR) [1] [pg/mL] | Fold Increase over WT CD80-IgV-Fc (RLU, Jurkat/IL2 + K562/OKT3/PD-L1 reporter assay, 50 nM) [2] [fold] | Relative Luciferase Units (RLU), Jurkat/IL2 + K562/OKT3/PD-L1 reporter assay, CD80-Fc Conc 50 nM [2] [RLU] | Fold Increase over WT CD80-IgV-Fc (RLU, Jurkat/IL2 + K562/OKT3/PD-L1 reporter assay, 50 nM) [3] [fold] | Relative Luciferase Units (RLU), Jurkat/IL2 + K562/OKT3/PD-L1 reporter assay, CD80-Fc Conc 50 nM [3] [RLU] | Substance
1280 | – | – | – | – | PD-L2 E44D/S67L/Q72H/Q82R/V89D IgV-Fc (from UniProt Q9BQ51 20-121) (Fc fusion)
1950 | – | – | – | – | PD-L2 I13V/Q72H/R76G/I86T IgV-Fc (from UniProt Q9BQ51 20-121) (Fc fusion)
1320 | – | – | – | – | PD-L2 H15Q/T47A/Q82R IgV-Fc (from UniProt Q9BQ51 20-121) (Fc fusion)
1500 | – | – | – | – | PD-L2 H15Q/L33H/S67L/R76G/Q82R/V89D IgV-Fc (from UniProt Q9BQ51 20-121) (Fc fusion)
1500 | – | – | – | – | PD-L2 H15Q/V89D IgV-Fc (from UniProt Q9BQ51 20-121) (Fc fusion)
– | 3.3 | 680 | 3.3 | 680 | CD80 E35D/M38T/M43V/M47V/N48R/L85Q IgV-Fc (inert) (Fc fusion)
– | 5.5 | 1120 | 5.5 | 1120 | CD80 V22L/Q27H/E35D/M47I/A71G IgV-Fc (inert) (Fc fusion)
– | 5.5 | 1140 | 5.5 | 1140 | CD80 V22D/E35D/M47L/L85Q IgV-Fc (inert) (Fc fusion)
– | 6.4 | 1310 | 6.4 | 1310 | CD80 Q27H/E35D/M47I/L85Q/D90G IgV-Fc (inert) (Fc fusion)
– | 4.4 | 897 | 4.4 | 897 | CD80 E35D/M47V/N48T/L85Q IgV-Fc (inert) (Fc fusion)
– | 5.4 | 1120 | 5.4 | 1120 | CD80 E35D/T41S/M43I/A71G/D90G IgV-Fc (inert) (Fc fusion)
– | 8.1 | 1670 | 8.1 | 1670 | CD80 E35D/T41S/M43V/M47I/L70M/A71G IgV-Fc (inert) (Fc fusion)
– | 4.1 | 851 | 4.1 | 851 | CD80 E35D/K37E/M47V/N48D/L85Q/D90N IgV-Fc (inert) (Fc fusion)
– | 7.5 | 1540 | 7.5 | 1540 | CD80 V22D/E35D/M47L/L70M/L97Q IgV-Fc (inert) (Fc fusion)
– | 5.9 | 1220 | 5.9 | 1220 | CD80 E35D/M47V/A71G/E88D IgV-Fc (inert) (Fc fusion)
